This experiment deals with Taq DNA polymerase (Thermus aquaticus) (UniProt P19821). Description: cell-based or functional assay.

Consider one substance from US20180298422A1.

Where only a bound is given, the exact number is not on record here.

UniProt P19821, sequence (P19821 whole entry): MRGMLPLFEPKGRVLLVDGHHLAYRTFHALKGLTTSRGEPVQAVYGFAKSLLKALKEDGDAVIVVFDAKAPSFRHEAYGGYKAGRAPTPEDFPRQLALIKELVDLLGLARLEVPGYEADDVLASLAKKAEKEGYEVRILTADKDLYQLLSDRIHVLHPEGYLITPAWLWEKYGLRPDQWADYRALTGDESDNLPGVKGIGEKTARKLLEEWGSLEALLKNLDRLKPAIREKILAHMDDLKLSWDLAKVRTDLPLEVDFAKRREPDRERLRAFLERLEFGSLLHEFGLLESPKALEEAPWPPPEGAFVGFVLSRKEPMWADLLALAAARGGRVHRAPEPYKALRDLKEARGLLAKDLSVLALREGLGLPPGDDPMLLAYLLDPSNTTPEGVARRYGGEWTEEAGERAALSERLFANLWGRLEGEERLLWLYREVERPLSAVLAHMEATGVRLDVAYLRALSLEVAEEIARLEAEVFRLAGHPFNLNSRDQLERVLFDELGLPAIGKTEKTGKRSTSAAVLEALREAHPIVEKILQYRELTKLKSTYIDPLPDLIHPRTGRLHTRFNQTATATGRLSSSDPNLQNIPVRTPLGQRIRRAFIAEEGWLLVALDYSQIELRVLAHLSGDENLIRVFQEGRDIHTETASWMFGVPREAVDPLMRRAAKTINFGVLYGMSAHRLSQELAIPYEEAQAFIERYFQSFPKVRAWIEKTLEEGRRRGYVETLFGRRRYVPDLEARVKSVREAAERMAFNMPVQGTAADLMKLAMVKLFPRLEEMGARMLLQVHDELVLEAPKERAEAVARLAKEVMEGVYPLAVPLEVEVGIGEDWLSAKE

With JumpStart Antibody (Sigma Aldrich), the reactivation time of Taq DNA polymerase at 95 C in real-time PCR is less than 0.5 min.
